Results taken from FireProtDB (doi:10.1073/pnas.88.5.1706).

Conditions: Enterobacteria phage fd; pH 7; 25 °C; GdnHCl; CD; MOPS 50 mM; NaCl 100 mM; reversible: yes; whole UniProt chain shown

B1: DNA-Binding protein G5P wild type, P69542 (protein)
chain: MIKVEIKPSQAQFTTRSGVSRQGKPYSLNEQLCYVDLGNEYPVLVKITLDEGQPAYAPGLYTVHLSSFKVGQFGSLMIDRLRLVPAK
  denaturant m value: 3.6 kcal/mol/M
  denaturant midpoint (higher = more stable): 2.61 M
  unfolding free energy: 9 kcal/mol
